Results from paper PMC2773741.

How the values were obtained:
[1] = target: neural retina leucine zipper (NRL), V5-tagged (UniProt P54845); assay: co-immunoprecipitation, band densitometry normalized to input; details: COS-1 cells cotransfected; IP goat anti-V5; detection mouse anti-Xpress; parent: est. 100; read off a plot
[2] = target: cone-rod homeobox (CRX), V5-tagged (UniProt O43186); assay: as above; details: COS-1 cells cotransfected; detection mouse anti-Xpress; parent: est. 100; read off a plot
cone-rod homeobox (CRX), V5-tagged, sequence (O43186 whole entry): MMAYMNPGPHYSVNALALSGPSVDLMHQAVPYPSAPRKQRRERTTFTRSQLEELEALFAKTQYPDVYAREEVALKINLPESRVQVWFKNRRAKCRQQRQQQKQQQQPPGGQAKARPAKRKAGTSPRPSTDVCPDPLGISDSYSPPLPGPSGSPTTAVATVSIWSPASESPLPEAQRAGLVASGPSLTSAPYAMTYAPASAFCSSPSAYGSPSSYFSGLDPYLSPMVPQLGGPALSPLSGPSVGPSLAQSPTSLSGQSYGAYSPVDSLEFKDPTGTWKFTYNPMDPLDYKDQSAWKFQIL

neural retina leucine zipper (NRL), V5-tagged, sequence (P54845 whole entry): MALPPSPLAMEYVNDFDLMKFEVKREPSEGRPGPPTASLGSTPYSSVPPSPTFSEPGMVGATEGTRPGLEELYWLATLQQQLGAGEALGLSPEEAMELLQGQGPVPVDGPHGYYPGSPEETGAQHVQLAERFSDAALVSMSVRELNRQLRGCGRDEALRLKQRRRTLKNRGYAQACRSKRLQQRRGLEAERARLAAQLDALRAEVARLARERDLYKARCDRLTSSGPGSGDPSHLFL
photoreceptor-specific nuclear receptor NR2E3 (nuclear receptor subfamily 2 group E member 3), wild type, Q9Y5X4-1 p.A256E, sequence (Q9Y5X4 whole entry A256E): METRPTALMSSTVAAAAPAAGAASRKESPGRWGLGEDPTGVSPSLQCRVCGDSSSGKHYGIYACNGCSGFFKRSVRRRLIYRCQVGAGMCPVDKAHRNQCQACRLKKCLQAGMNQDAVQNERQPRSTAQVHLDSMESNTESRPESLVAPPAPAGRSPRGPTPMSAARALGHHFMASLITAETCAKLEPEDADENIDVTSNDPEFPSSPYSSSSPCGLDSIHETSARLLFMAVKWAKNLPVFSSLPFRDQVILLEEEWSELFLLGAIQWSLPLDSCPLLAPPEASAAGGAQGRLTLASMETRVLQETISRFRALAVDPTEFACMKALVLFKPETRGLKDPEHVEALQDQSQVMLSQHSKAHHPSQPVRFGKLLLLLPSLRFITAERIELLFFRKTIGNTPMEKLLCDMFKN
photoreceptor-specific nuclear receptor NR2E3 (nuclear receptor subfamily 2 group E member 3), wild type, Q9Y5X4-1 p.L263P, sequence (Q9Y5X4 whole entry L263P): as the sequence (Q9Y5X4 whole entry A256E) above, with E256A, L263P counted along it
photoreceptor-specific nuclear receptor NR2E3 (nuclear receptor subfamily 2 group E member 3), wild type, Q9Y5X4-1 p.R76Q, sequence (Q9Y5X4 whole entry R76Q): as the sequence (Q9Y5X4 whole entry A256E) above, with R76Q, E256A counted along it
photoreceptor-specific nuclear receptor NR2E3 (nuclear receptor subfamily 2 group E member 3), wild type, Q9Y5X4-1 p.R385P, sequence (Q9Y5X4 whole entry R385P): as the sequence (Q9Y5X4 whole entry A256E) above, with E256A, R385P counted along it
photoreceptor-specific nuclear receptor NR2E3 (nuclear receptor subfamily 2 group E member 3), wild type, Q9Y5X4-1 p.G56R, sequence (Q9Y5X4 whole entry G56R): as the sequence (Q9Y5X4 whole entry A256E) above, with G56R, E256A counted along it
photoreceptor-specific nuclear receptor NR2E3 (nuclear receptor subfamily 2 group E member 3), wild type, Q9Y5X4-1 p.R76W, sequence (Q9Y5X4 whole entry R76W): as the sequence (Q9Y5X4 whole entry A256E) above, with R76W, E256A counted along it
photoreceptor-specific nuclear receptor NR2E3 (nuclear receptor subfamily 2 group E member 3), wild type, Q9Y5X4-1 p.W234S, sequence (Q9Y5X4 whole entry W234S): as the sequence (Q9Y5X4 whole entry A256E) above, with W234S, E256A counted along it
photoreceptor-specific nuclear receptor NR2E3 (nuclear receptor subfamily 2 group E member 3), wild type, Q9Y5X4-1 p.R97H, sequence (Q9Y5X4 whole entry R97H): as the sequence (Q9Y5X4 whole entry A256E) above, with R97H, E256A counted along it
photoreceptor-specific nuclear receptor NR2E3 (nuclear receptor subfamily 2 group E member 3), wild type, Q9Y5X4-1 p.E121K, sequence (Q9Y5X4 whole entry E121K): as the sequence (Q9Y5X4 whole entry A256E) above, with E121K, E256A counted along it
photoreceptor-specific nuclear receptor NR2E3 (nuclear receptor subfamily 2 group E member 3), wild type, Q9Y5X4-1 p.V232I, sequence (Q9Y5X4 whole entry V232I): as the sequence (Q9Y5X4 whole entry A256E) above, with V232I, E256A counted along it

| Substance | percent of parent [1] [%] | percent of parent [2] [%] |
| --- | --- | --- |
| photoreceptor-specific nuclear receptor NR2E3 (nuclear receptor subfamily 2 group E member 3), wild type, Q9Y5X4-1 p.A256E | 62 | 55 |
| photoreceptor-specific nuclear receptor NR2E3 (nuclear receptor subfamily 2 group E member 3), wild type, Q9Y5X4-1 p.E121K | 120 | 87 |
| photoreceptor-specific nuclear receptor NR2E3 (nuclear receptor subfamily 2 group E member 3), wild type, Q9Y5X4-1 p.G56R | 110 | 48 |
| photoreceptor-specific nuclear receptor NR2E3 (nuclear receptor subfamily 2 group E member 3), wild type, Q9Y5X4-1 p.G88V | 110 | 99 |
| photoreceptor-specific nuclear receptor NR2E3 (nuclear receptor subfamily 2 group E member 3), wild type, Q9Y5X4-1 p.L263P | 16 | 24 |
| photoreceptor-specific nuclear receptor NR2E3 (nuclear receptor subfamily 2 group E member 3), wild type, Q9Y5X4-1 p.L336P | 10 | 32 |
| photoreceptor-specific nuclear receptor NR2E3 (nuclear receptor subfamily 2 group E member 3), wild type, Q9Y5X4-1 p.L353V | 10 | 30 |
| photoreceptor-specific nuclear receptor NR2E3 (nuclear receptor subfamily 2 group E member 3), wild type, Q9Y5X4-1 p.M407K | 61 | 76 |
| photoreceptor-specific nuclear receptor NR2E3 (nuclear receptor subfamily 2 group E member 3), wild type, Q9Y5X4-1 p.N65_C67del | 100 | 84 |
| photoreceptor-specific nuclear receptor NR2E3 (nuclear receptor subfamily 2 group E member 3), wild type, Q9Y5X4-1 p.R76Q | 110 | 95 |
| photoreceptor-specific nuclear receptor NR2E3 (nuclear receptor subfamily 2 group E member 3), wild type, Q9Y5X4-1 p.R76W | 98 | 88 |
| photoreceptor-specific nuclear receptor NR2E3 (nuclear receptor subfamily 2 group E member 3), wild type, Q9Y5X4-1 p.R97H | 110 | 43 |
| photoreceptor-specific nuclear receptor NR2E3 (nuclear receptor subfamily 2 group E member 3), wild type, Q9Y5X4-1 p.R104Q | 100 | 42 |
| photoreceptor-specific nuclear receptor NR2E3 (nuclear receptor subfamily 2 group E member 3), wild type, Q9Y5X4-1 p.R309G | 37 | 55 |
| photoreceptor-specific nuclear receptor NR2E3 (nuclear receptor subfamily 2 group E member 3), wild type, Q9Y5X4-1 p.R311Q | 74 | 44 |
| photoreceptor-specific nuclear receptor NR2E3 (nuclear receptor subfamily 2 group E member 3), wild type, Q9Y5X4-1 p.R334G | 69 | 81 |
| photoreceptor-specific nuclear receptor NR2E3 (nuclear receptor subfamily 2 group E member 3), wild type, Q9Y5X4-1 p.R385P | 37 | 60 |
| photoreceptor-specific nuclear receptor NR2E3 (nuclear receptor subfamily 2 group E member 3), wild type, Q9Y5X4-1 p.V232I | 87 | 87 |
| photoreceptor-specific nuclear receptor NR2E3 (nuclear receptor subfamily 2 group E member 3), wild type, Q9Y5X4-1 p.V302I | 56 | 86 |
| photoreceptor-specific nuclear receptor NR2E3 (nuclear receptor subfamily 2 group E member 3), wild type, Q9Y5X4-1 p.W234S | 58 | 95 |
